Reference: patent US20260056186A1 (JIANGSU HENGRUI PHARMACEUTICALS, published 2026)
Where two headings read alike, the source gives them in different places.

How the values were obtained:
[1] = molecular target: T1, recombinant human APRIL (R&D cat: 5860-AP-010/CF) (human, UniProt O75888 105-250, limits assumed); test: cell-based or functional assay
T1 sequence (looked up): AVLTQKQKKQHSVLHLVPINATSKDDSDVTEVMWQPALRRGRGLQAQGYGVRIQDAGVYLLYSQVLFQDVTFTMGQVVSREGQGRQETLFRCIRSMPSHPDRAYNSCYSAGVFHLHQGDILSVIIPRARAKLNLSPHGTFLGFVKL

[2] = molecular target: T2, recombinant human BAFF (R&D cat: 7537-BF-025/CF) (human, UniProt Q9Y275 134-285); test: cell-based or functional assay
[3] = molecular target: T1, recombinant human APRIL (R&D cat: …); test: cell-based or functional assay; remark: listed apart in the source
[4] = molecular target: T2, recombinant human BAFF (R&D cat: …); test: cell-based or functional assay; remark: listed apart in the source
[5] = molecular target: T3, BAFF (PeproTech, Cat: 310-13) (UniProt Q9Y275 134-285); test: ELISA, BAFF coated at 1 ug/mL, anti-human Fc-HRP, OD450
Procedure: (§1) The capabilities of B613301, B613302, and B613303, which are fusion proteins of anifrolumab and TACI-BCMA, to bind to BAFF and APRIL were assessed by ELISA as follows: [0548] BAFF (PeproTech, Cat: 310-13) or ARPIL (Acro Biosystems, Cat: APL-H52D1) was diluted to 1 μg/mL with PBS, and a 96-well plate (Costar, Cat: 3590) was coated with the dilution overnight at 4° C. The plate was washed with PBST and blocked with Blocking Buffer (PBST containing 1% BSA) at 37° C. for 1 h. The plate was tapped. The test antibodies were diluted with Blocking Buffer. Incubation was performed at 37° C. for 1.5 h. The plate was washed with PBST. An HRP-mouse anti-human Fc antibody (GenScript, Cat: A01854-200) was diluted with Blocking Buffer. Incubation was performed at 37° C. for 40 min. The plate was washed with PBST. 100 μL of TMB substrate solution (Biopanda, Cat: TMB-S-003) was added, and color development was performed at 37° C. for 3 min. 100 μL of ELISA stop solution (Solarbio, Cat: C1058) was added. OD450 was measured.

[6] = molecular target: T3, BAFF (PeproTech, Cat: 310-13); test: as above; remark: listed apart in the source
Procedure: The capabilities of fusion proteins B606401, B637302, B746201, and B805201 to bind to BAFF and APRIL were assessed by ELISA as follows:
as §1, with “BAFF” for “The capabilities of B613301, B613302, and B613303, which are fusion proteins of anifrolumab and TACI-BCMA, to bind to BAFF and APRIL were assessed by ELISA as follows: [0548] BAFF”, “plate” for “plate (Costar, Cat: 3590)”

[7] = molecular target: T4, APRIL (Acro Biosystems, Cat: APL-H52D1) (UniProt O75888 115-250, limits assumed); test: ELISA, APRIL coated at 1 ug/mL, anti-human Fc-HRP, OD450
T4 construct: also called ARPIL
T4 sequence (looked up): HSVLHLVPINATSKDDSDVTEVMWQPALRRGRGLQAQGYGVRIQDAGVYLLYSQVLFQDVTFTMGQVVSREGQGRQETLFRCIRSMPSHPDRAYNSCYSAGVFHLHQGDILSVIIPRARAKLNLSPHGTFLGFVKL

[8] = molecular target: T3, BAFF (PeproTech, Cat: 310-13); test: ELISA, BAFF coated at 1 ug/mL, anti-human Fc-HRP, OD450; remark: listed apart in the source
Procedure: as §1, with “TACI-BCMA” for “B613301, B613302, and B613303, which are”, “(B575701, B575702, B575703,” for “of anifrolumab”, “B575704)” for “TACI-BCMA,”, “follows:” for “follows: [0548]”
The capability of B575702 to bind to BAFF was consistent with that of B575704, and their EC₅₀ values decreased to ¼ of that of telitacicept. The capability of B575701 to bind to BAFF was consistent with that of B575703, and their EC₅₀ values decreased to ½ of that of telitacicept.

Flow cytometry proliferating B cell proportion (%), mean value, APRIL-induced, drug at 4.12 nM (IgG1: 55.30) [1]: 48.1%
Flow cytometry proliferating B cell proportion (%), mean value, APRIL-induced, drug at 12.35 nM (IgG1: 54.80) [1]: 49.2%
Flow cytometry proliferating B cell proportion (%), mean value, APRIL-induced, drug at 37.04 nM (IgG1: 56.63) [1]: 50.1%
Flow cytometry proliferating B cell proportion (%), mean value, APRIL-induced, drug at 111.11 nM (IgG1: 55.83) [1]: 50.3%
Flow cytometry proliferating B cell proportion (%), mean value, APRIL-induced, drug at 333.33 nM (IgG1: 56.27) [1]: 49.1%
Flow cytometry proliferating B cell proportion (%), mean value, APRIL-induced, drug at 1000.00 nM (IgG1: 53.27) [1]: 46.3%
Flow cytometry proliferating B cell proportion (%), mean value, BAFF-induced, drug at 10 nM (IgG1: 40.15) [2]: 36%
Flow cytometry proliferating B cell proportion (%), mean value, BAFF-induced, drug at 100 nM (IgG1: 40.60) [2]: 30.7%
Flow cytometry proliferating B cell proportion (%), mean value, BAFF-induced, drug at 1000 nM (IgG1: 33.97) [2]: 24.3%
CD27+ CD38+ plasma cell count, mean value, BAFF + APRIL-induced (both ligands together), drug at 10 nM (IgG1: 2687) [3]: 2450 cells
CD27+ CD38+ plasma cell count, mean value, BAFF + APRIL-induced (both ligands together), drug at 100 nM (IgG1: 2496) [3]: 510 cells
CD27+ CD38+ plasma cell count, mean value, BAFF + APRIL-induced (both ligands together), drug at 1000 nM (IgG1: 2279) [3]: 230 cells
CD27+ CD38+ plasma cell count, mean value, BAFF + APRIL-induced (both ligands together), drug at 100 nM (IgG1: 2496) [4]: 510 cells
CD27+ CD38+ plasma cell count, mean value, BAFF + APRIL-induced (both ligands together), drug at 1000 nM (IgG1: 2279) [4]: 230 cells
EC50 [5]: 0.801 nM
EC50 [6]: 0.256 nM
EC50 [7]: 0.536 nM
Emax [7]: 2.98
EC50 [8]: 0.713 nM
Emax [8]: 2.28 nM (as printed)
B1: Telitacicept (RCT-18) (Fc fusion)
chain: SRVDQEERFPQGLWTGVAMRSCPEEQYWDPLLGTCMSCKTICNHQSQRTCAAFCRSLSCRKEQGKFYDHLLRDCISCASICGQHPKQCAYFCENKLRSPVNLPPELDKTHTCPPCPAPEAEGAPSVFLFPPKPKDTLMISRTPEVTCVVVDVSHEDPEVKFNWYVDGVEVHNAKTKPREEQYNSTYRVVSVLTVLHQDWLNGKEYKCKVSNKALPSSIEKTISKAKGQPREPQVYTLPPSRDELTKNQVSLTCLVKGFYPSDIAVEWESNGQPENNYKTTPPVLDSDGSFFLYSKLTVDKSRWQQGNVFSCSVMHEALHNHYTQKSLSLSPGK
notes: Positive control TACI-Fc; also called RC18
